Data taken from patent publication US20190225692A1 (JUNO THERAPEUTICS, published 2019).
Positions count from the first letter of the chain named.

B1: TCR 37 (codon optimized, cysteine modified version) (TCR, V domains shown)
V domain 1: ELKVEQNPLFLSMQEGKNYTIYCNYSTTSDRLYWYRQDPGKSLESLFVLLSNGAVKQEGRLMASLDTKARLSTLHITAAVHDLSATYFCAGYSGAGSYQLTFGKGTKLSVIP
V domain 2: GAGVSQSPRYKVAKRGQDVALRCDPISGHVSLFWYQQALGQGPEFLTYFQNEAQLDKSGLPSDRFFAERPEGSVSTLKIQRTQQEDSAVYLCASSLLLGAYGYTFGSGTRLTVVE
B2: TCR 44 (codon optimized, cysteine modified version) (TCR, V domains shown)
V domain 1: GQNIDQPTEMTATEGAIVQINCTYQTSGFNGLFWYQQHAGEAPTFLSYNVLDGLEEKGRFSSFLSRSKGYSYLLLKELQMKDSASYLCAQYSGGYQKVTFGTGTKLQVIP
V domain 2: DSGVTQTPKHLITATGQRVTLRCSPRSGDLSVYWYQQSLDQGLQFLIQYYNGEERAKGNILERFSAQQFPDLHSELNLSSLELGDSALYFCASSGTPDTQYFGPGTRLTVLE
B3: TCR 31 (codon optimized, cysteine modified version) (TCR, V domains shown)
V domain 1: DQQVKQNSPSLSVQEGRISILNCDYTNSMFDYFLWYKKYPAEGPTFLISISSIKDKNEDGRFTVFLNKSAKHLSLHIVPSQPGDSAVYFCAASERGTYKYIFGTGTRLKVLA
V domain 2: GAGVSQSPSNKVTEKGKDVELRCDPISGHTALYWYRQSLGQGLEFLIYFQGNSAPDKSGLPSDRFSAERTGGSVSTLTIQRTQQEDSAVYLCASSRFLGSTDTQYFGPGTRLTVLE
B4: TCR 39 (codon optimized, cysteine modified version) (TCR, V domains shown)
V domain 1: GQQLNQSPQSMFIQEGEDVSMNCTSSSIFNTWLWYKQEPGEGPVLLIALYKAGELTSNGRLTAQFGITRKDSFLNISASIPSDVGIYFCAGYSSSNDYKLSFGAGTTVTVRA
V domain 2: EPEVTQTPSHQVTQMGQEVILRCVPISNHLYFYWYRQILGQKVEFLVSFYNNEISEKSEIFDDQFSVERPDGSNFTLKIRSTKLEDSAMYFCASTPRDRGKEAFFGQGTRLTVVE
B5: TCR 41 (codon optimized, cysteine modified version) (TCR, V domains shown)
V domain 1: RKEVEQDPGPFNVPEGATVAFNCTYSNSASQSFFWYRQDCRKEPKLLMSVYSSGNEDGRFTAQLNRASQYISLLIRDSKLSDSATYLCVVTFALTGGFKTIFGAGTRLFVKA
V domain 2: EPEVTQTPSHQVTQMGQEVILRCVPISNHLYFYWYRQILGQKVEFLVSFYNNEISEKSEIFDDQFSVERPDGSNFTLKIRSTKLEDSAMYFCASNPRDRVSYEQYFGPGTRLTVTE
B6: TCR 35 (codon optimized, cysteine modified version) (TCR, V domains shown)
V domain 1: KDQVFQPSTVASSEGAVVEIFCNHSVSNAYNFFWYLHFPGCAPRLLVKGSKPSQQGRYNMTYERFSSSLLILQVREADAAVYYCAVAGDYKLSFGAGTTVTVRA
V domain 2: DSGVTQTPKHLITATGQRVTLRCSPRSGDLSVYWYQQSLDQGLQFLIQYYNGEERAKGNILERFSAQQFPDLHSELNLSSLELGDSALYFCASTTSGDSSYNEQFFGPGTRLTVLE
B7: TCR 32 (codon optimized, cysteine modified version) (TCR, V domains shown)
V domain 1: TQLLEQSPQFLSIQEGENLTVYCNSSSVFSSLQWYRQEPGEGPVLLVTVVTGGEVKKLKRLTFQFGDARKDSSLHITAAQPGDTGLYLCAGGSNYKLTFGKGTLLTVNP
V domain 2: DSGVTQTPKHLITATGQRVTLRCSPRSGDLSVYWYQQSLDQGLQFLIQYYNGEERAKGNILERFSAQQFPDLHSELNLSSLELGDSALYFCASSVGGDHSDEQFFGPGTRLTVLE
B8: TCR 34 (codon optimized, cysteine modified version) (TCR, V domains shown)
V domain 1: ELKVEQNPLFLSMQEGKNYTIYCNYSTTSDRLYWYRQDPGKSLESLFVLLSNGAVKQEGRLMASLDTKARLSTLHITAAVHDLSATYFCAVSGTYKYIFGTGTRLKVLA
V domain 2: ETGVTQSPTHLIKTRGQQVTLRCSSQSGHNTVSWYQQALGQGPQFIFQYYREEENGRGNFPPRFSGLQFPNYSSELNVNALELDDSALYLCASSSYAGSYEQYFGPGTRLTVTE
B9: TCR 43 (codon optimized, cysteine modified version) (TCR, V domains shown)
V domain 1: QKEVEQNSGPLSVPEGAIASLNCTYSDRGSQSFFWYRQYSGKSPELIMFIYSNGDKEDGRFTAQLNKASQYVSLLIRDSQPSDSATYLCAVNVPTSGTYKYIFGTGTRLKVLA
V domain 2: EPEVTQTPSHQVTQMGQEVILRCVPISNHLYFYWYRQILGQKVEFLVSFYNNEISEKSEIFDDQFSVERPDGSNFTLKIRSTKLEDSAMYFCASTPRDSYEQYFGPGTRLTVTE
B10: TCR 40 (codon optimized, cysteine modified version) (TCR, V domains shown)
V domain 1: GQQVMQIPQYQHVQEGEDFTTYCNSSTTLSNIQWYKQRPGGHPVFLIQLVKSGEVKKQKRLTFQFGEAKKNSSLHITATQTTDVGTYFCAGRNNFNKFYFGSGTKLNVKP
V domain 2: B9 V domain 2 with S94I, P96A, D98S
B11: TCR 36 (codon optimized, cysteine modified version) (TCR, V domains shown)
V domain 1: RKEVEQDPGPFNVPEGATVAFNCTYSNSASQSFFWYRQDCRKEPKLLMSVYSSGNEDGRFTAQLNRASQYISLLIRDSKLSDSATYLCVVNRDNYGQNFVFGPGTRLSVLP
V domain 2: B9 V domain 2 with S94M, P96G, D98S, S99N
B12: TCR 42 (codon optimized, cysteine modified version) (TCR, V domains shown)
V domain 1: B10 V domain 1 with R92P, N93D
V domain 2: B9 V domain 2 with S94K, P96S, D98S
B13: TCR 33 (codon optimized, cysteine modified version) (TCR, V domains shown)
V domain 1: B9 V domain 1 with V93A, P94H, T95H, S96T, T98G, Y99F, Y101T, T105A, K110F, L112K
V domain 2: B9 V domain 2 with S99T
B14: TCR 49 (codon optimized, cysteine modified version) (TCR, V domains shown)
V domain 1: B9 V domain 1 with V93I, P94G
V domain 2: B9 V domain 2 with D98Y

The binders below were run against T1, HLA-A2/E7 (11-19) tetramer (human; HPV 16) (assay: tetramer flow cytometry; transfected 1:1 CD4+ and CD4+/CD8+ Jurkat-derived cells;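 further: cells transiently transfected with TCR plasmids, stained 48 h later with HLA-A*02:01 peptide-MHC tetramer plus anti-CD8 antibody, read by flow cytometry to assess CD8-independent tetramer binding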).
T1 construct: also called E7(11-19) peptide-MHC tetramer; E7 (11-19)-loaded tetramer
Procedure: For transfection, the CD4+ and CD4+/CD8+ cell mixtures were transiently transfected with TCR-encoding plasmids and 48 hours after transfection, cells were assessed by flow cytometry for (1) binding of the target peptide in the context of an MHC molecule (HLA:A02:01) by staining with an E6(29-38) peptide- or an E7(11-19) peptide-MHC tetramer reagent, and/or (2) CD8+ independent binding of the target by co-staining the tetramer-labeled cells with an anti-CD8 antibody.

Q: For B1, which “% cells in E7 tet+/CD8+ quadrant” value is on record?
A: 25.5%

Q: And the “% cells in E7 tet+/CD8- quadrant” value?
A: 19.5%

Q: And the “% cells in E7 tet-/CD8+ quadrant” value?
A: 22.7%

Q: What about the “% cells in E7 tet-/CD8- quadrant” value of the same binder?
A: 32.2%

Q: With B2 as the binder, how does the “% cells in E7 tet+/CD8+ quadrant” value read?
A: 2.96%

Q: And the “% cells in E7 tet+/CD8- quadrant” value?
A: 1.43%

Q: And the “% cells in E7 tet-/CD8+ quadrant” value?
A: 39.9%

Q: What about the “% cells in E7 tet-/CD8- quadrant” value of the same binder?
A: 55.7%

Q: B3 was tested. Which “% cells in E7 tet+/CD8+ quadrant” value did it give?
A: 4.52%

Q: What about the “% cells in E7 tet+/CD8- quadrant” value of the same binder?
A: 0.042%

Q: What about the “% cells in E7 tet-/CD8+ quadrant” value of the same binder?
A: 21.1%

Q: What about the “% cells in E7 tet-/CD8- quadrant” value of the same binder?
A: 74.3%

Q: For B4, which “% cells in E7 tet+/CD8+ quadrant” value is on record?
A: 12.3%

Q: And the “% cells in E7 tet+/CD8- quadrant” value?
A: 2.61%

Q: And the “% cells in E7 tet-/CD8+ quadrant” value?
A: 37%

Q: What about the “% cells in E7 tet-/CD8- quadrant” value of the same binder?
A: 48%

Q: With B5 as the binder, how does the “% cells in E7 tet+/CD8+ quadrant” value read?
A: 6.07%

Q: And the “% cells in E7 tet+/CD8- quadrant” value?
A: 2.41%

Q: And the “% cells in E7 tet-/CD8+ quadrant” value?
A: 43.6%

Q: What about the “% cells in E7 tet-/CD8- quadrant” value of the same binder?
A: 47.9%

Q: How did the “% cells in E7 tet+/CD8+ quadrant” value turn out when B6 was run?
A: 14.5%

Q: And the “% cells in E7 tet+/CD8- quadrant” value?
A: 7.18%

Q: And the “% cells in E7 tet-/CD8+ quadrant” value?
A: 35.1%

Q: And the “% cells in E7 tet-/CD8- quadrant” value?
A: 43.2%

Q: Which results are given for B7?
A: % cells in E7 tet+/CD8+ quadrant: 25.3%; % cells in E7 tet+/CD8- quadrant: 33.5%; % cells in E7 tet-/CD8+ quadrant: 7.53%; % cells in E7 tet-/CD8- quadrant: 33.7%

Q: Which “% cells in E7 tet+/CD8+ quadrant” value does the source give for B8 here?
A: 26.3%

Q: And the “% cells in E7 tet+/CD8- quadrant” value?
A: 26%

Q: And the “% cells in E7 tet-/CD8+ quadrant” value?
A: 6.85%

Q: What about the “% cells in E7 tet-/CD8- quadrant” value of the same binder?
A: 40.9%

Q: B9 was tested. Which “% cells in E7 tet+/CD8+ quadrant” value did it give?
A: 3.82%

Q: What about the “% cells in E7 tet+/CD8- quadrant” value of the same binder?
A: 1.88%

Q: What about the “% cells in E7 tet-/CD8+ quadrant” value of the same binder?
A: 37.6%

Q: What about the “% cells in E7 tet-/CD8- quadrant” value of the same binder?
A: 56.7%

Q: Which “% cells in E7 tet+/CD8+ quadrant” value does the source give for B10 here?
A: 7.84%

Q: What about the “% cells in E7 tet+/CD8- quadrant” value of the same binder?
A: 1.37%

Q: And the “% cells in E7 tet-/CD8+ quadrant” value?
A: 42.4%

Q: And the “% cells in E7 tet-/CD8- quadrant” value?
A: 48.4%

Q: For B11, which “% cells in E7 tet+/CD8+ quadrant” value is on record?
A: 23.4%

Q: What about the “% cells in E7 tet+/CD8- quadrant” value of the same binder?
A: 16.7%

Q: And the “% cells in E7 tet-/CD8+ quadrant” value?
A: 25.4%

Q: What about the “% cells in E7 tet-/CD8- quadrant” value of the same binder?
A: 34.5%

Q: Which “% cells in E7 tet+/CD8+ quadrant” value does the source give for B12 here?
A: 1.21%

Q: And the “% cells in E7 tet+/CD8- quadrant” value?
A: 1.65%

Q: What about the “% cells in E7 tet-/CD8+ quadrant” value of the same binder?
A: 39.5%

Q: And the “% cells in E7 tet-/CD8- quadrant” value?
A: 57.4%

Q: What does the source list for B13?
A: % cells in E7 tet+/CD8+ quadrant: 22.6%; % cells in E7 tet+/CD8- quadrant: 14%; % cells in E7 tet-/CD8+ quadrant: 12.8%; % cells in E7 tet-/CD8- quadrant: 50.6%

Q: How did the “% cells in E7 tet+/CD8+ quadrant” value turn out when B14 was run?
A: 5.54%

Q: And the “% cells in E7 tet+/CD8- quadrant” value?
A: 3.06%

Q: What about the “% cells in E7 tet-/CD8+ quadrant” value of the same binder?
A: 27.2%

Q: What about the “% cells in E7 tet-/CD8- quadrant” value of the same binder?
A: 64.3%
